Results on five molecules are retold here after PMC548358.

B1: *A:GO (dsDNA)
DNA 1: AGCGGCCATCGATACCGTCAACCTCGAGGAATTCC
DNA 2: GGAATTCCTCGAGGTGGACGGTATCGATGGCCGCT
modifications: 8-oxoguanine at strand 2 position 16, opposite A20 of strand 1
B2: *AO:G (dsDNA)
DNA 1: B1 DNA 1
DNA 2: B1 DNA 2
modifications: 2-hydroxyadenine at strand 1 position 20, opposite G16 of strand 2
B3: *A:G (dsDNA)
DNA 1: B1 DNA 1
DNA 2: B1 DNA 2
B4: *AO:T (dsDNA)
DNA 1: B1 DNA 1
DNA 2: B1 DNA 2 with G16T
modifications: 2-hydroxyadenine at strand 1 position 20, opposite T16 of strand 2
B5: *AO:GO (dsDNA)
DNA 1: B1 DNA 1
DNA 2: B1 DNA 2
modifications: 2-hydroxyadenine at strand 1 position 20; 8-oxoguanine at strand 2 position 16

Where a chain is given by its changes, count along the chain named.

In one series the target is T1, Trx-mMUTYH(D207N) (Mus musculus, UniProt Q99P21 1-515, D207N).
T1 sequence: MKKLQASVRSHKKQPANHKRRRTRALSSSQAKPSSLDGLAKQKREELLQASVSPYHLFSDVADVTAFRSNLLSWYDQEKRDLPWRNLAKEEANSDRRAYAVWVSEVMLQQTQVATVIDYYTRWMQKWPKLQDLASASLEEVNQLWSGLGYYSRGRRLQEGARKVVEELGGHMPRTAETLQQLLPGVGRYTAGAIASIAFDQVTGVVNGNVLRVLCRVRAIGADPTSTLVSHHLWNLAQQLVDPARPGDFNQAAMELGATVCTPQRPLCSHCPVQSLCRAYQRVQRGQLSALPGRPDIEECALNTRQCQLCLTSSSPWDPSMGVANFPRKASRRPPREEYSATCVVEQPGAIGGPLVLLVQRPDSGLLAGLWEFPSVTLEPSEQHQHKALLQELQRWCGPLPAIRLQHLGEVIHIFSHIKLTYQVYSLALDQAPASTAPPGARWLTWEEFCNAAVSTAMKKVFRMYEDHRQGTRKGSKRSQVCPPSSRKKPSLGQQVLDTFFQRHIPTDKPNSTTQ
The experiment in a line: EMSA. For orientation: In EMSA bound probe runs differently from free probe, usually more slowly.
For B1, the binding result is listed as “binds”.
Still for that read-out and setting: with B2 the entry was “no binding”.
In the case of B3, the binding result is listed as “no binding”.
Still for that read-out and setting: the entry for B4 is “no binding”.

For a further series, the target named is T2, Trx-mMUTYH wild type (Mus musculus, UniProt Q99P21 1-515).
T2 sequence: T1 sequence with N207D
The experiment in a line: EMSA.
As for B1, the binding result is on record as “binds”.
Still for that read-out and setting: the entry for B5 is “binds”; for B2 it is “no binding”; for B3 it is “no binding”.
Still for that read-out and setting: with B4 the entry was “no binding”.
